{"source": "patent US7291332B2", "about": "“Inflammatory mediator antagonists” (SmithKline Beecham Corporation, priority 1998, dated 2007)", "key": {"[1]": {"system": "OSM-induced sPAP release, HepG2 B6 cells", "assay": "HepG2 B6: OSM-induced sPAP assay", "type": "cell-based, human", "from_the_text": "A HepG2 cell line (ECACC) was stably transfected with six functional STAT3 response elements (REs) upstream of sPAP (secreted placental alkaline phosphatase) cDNA as described below to form HepG2B6. STAT3 (signal transducer and activator of transcription) is an intermediate in the IL-6 cytokine family […] signalling cascade. Following dimerisation of cell surface receptors STAT3 is phosphorylated and will then bind to DNA REs in the nucleus and activate DNA downstream, in this construct that DNA is sPAP. Thus this line can be driven to produce sPAP by overnight incubation in Oncostatin M.\nHepG2 B6 cells were plated into 96 well plates to a final concentration of 3×10^4 cells per well in 100 μl of media (DMEM (Sigma), 10% HI FCS, 1% non-essential amino acids, 2 mM Glutamine, 500 μg ml^−1 G418, (all from Life Technologies)). Cells were allowed to equilibrate for 48 hours. Putative anti-OSM solid compounds were made up to a stock dilution of 20 mM in DMSO and serially diluted 1:3 in DMSO. This was then further diluted in HepG26B assay media, this is as above media but with 1% heat inactivated FCS, low alkaline phosphatase activity (Life Technologies) substituted for 10% HI FCS. Compounds were diluted 1:3 from a top concentration of […] to a final concentration of 0.09 μM in a final concentration of 1% DMSO. (That is 200, 66.67, 22.22, 7.41, 2.47, 0.82, 0.27, 0.09 and 0 μM). The old media was removed from the wells and replaced with diluted compound also containing 2 ng ml^−1 OSM (R&D Systems), cells were incubated for a further 20 hours. Each dilution was performed in triplicate. 20 μl of media was removed from each well and assayed for sPAP activity using pNPP (p-Nitrophenyl phosphate; Sigma), as a substrate. Endogenous alkaline phosphatase is blocked with L-homoarginine. Optical density of substrate is read at 405-650 nm. Concentration of compound is plotted against OD as a measure of sPAP produced and can be analysed to determine IC50 values."}, "[2]": {"system": "TNFα-induced sPAP release, A549 cells", "assay": "A549 cells: TNFα-induced sPAP assay", "type": "cell-based, human", "experimental": "This assay used A549 cells that had been stably transfected with a reporter gene, comprising the cytokine responsive region of the E-selectin gene coupled to alkaline phosphatase (Ray et al., Biochem J. 328:707-715, 1997). This transfected cell line can be driven to produce sPAP by overnight incubation with TNFα.\nA549 cells were plated into 96 well plates to a final concentration of 5×10^4 cells per well in […] of media. Cells were allowed to equilibrate for 24 hours. Putative anti-OSM solid compounds are made up to a stock dilution of 20 mM in DMSO and serially diluted 1:3 in DMSO. This was then further diluted in media (DMEM, 1% heat inactivated FCS, low alkaline phosphatase activity, 1% non-essential amino acids, 2 mM Glutamine, 500 μg ml^−1 G418, (all from Life Technologies), to give a concentration response of 0.09-200 μM in a final concentration of 1% DMSO. The old media was removed from the wells and replaced with diluted compound also containing 3 ng ml^−1 TNFα (R&D Systems), cells were incubated for a further 20 hours. Each dilution was performed in triplicate. 20 μl of media was removed from each well and assayed for sPAP activity using p-Nitrophenyl phosphate (Sigma), as a substrate. […] Optical density of substrate is read at 405-650 nm. Concentration of compound is plotted against OD as a measure of sPAP produced and can be analysed to determine IC50 values."}, "L-selectin": {"target": "T1, L-selectin (Homo sapiens, UniProt P14151)", "T1 construct": "endogenous in cells; host or cells: human peripheral blood mononuclear cells (buffy coats)", "T1 sequence (P14151 39-372)": "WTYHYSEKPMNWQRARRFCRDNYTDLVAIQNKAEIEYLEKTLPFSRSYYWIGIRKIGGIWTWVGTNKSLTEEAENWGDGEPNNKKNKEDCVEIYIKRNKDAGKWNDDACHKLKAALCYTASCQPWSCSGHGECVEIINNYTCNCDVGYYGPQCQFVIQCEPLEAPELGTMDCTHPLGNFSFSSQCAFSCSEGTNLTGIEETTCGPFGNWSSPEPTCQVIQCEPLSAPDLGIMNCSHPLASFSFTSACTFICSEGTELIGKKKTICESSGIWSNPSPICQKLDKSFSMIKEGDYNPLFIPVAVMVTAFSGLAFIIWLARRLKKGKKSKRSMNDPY", "assay": "Stimulation of PBMC via L-selectin: OSM secretion (ELISA)", "type": "cell-based", "settings": "24 hr incubation", "experimental": "Mononuclear cells were isolated from human buffy coats as described above. 5×10^5 cells were plated out in 0.5 ml volumes and incubated for 24 hr at 37° C., 5% CO2 with 60-80 kD M. wt. fucoidan (Sigma) anti-L-selectin monoclonal antibodies, LAM1-3 and TQ1 or an isotype matched control IgG antibody (all from Coulter). Supernatants were assayed for OSM using a specific ELISA assay (Quantikine, R&D Systems), according to the Manufacturer's instructions.\nMononuclear cells from healthy donors were incubated for 24 hrs with anti-human L-selectin antibodies, (either TQ1 or LAM-1), or an isotype-matched control antibody and culture supernatants assayed by ELISA for OSM. […] The ability of the L-selectin agonist fucoidan to induce OSM from mononuclear cell cultures was then investigated."}, "human blood macrophages": {"system": "human blood macrophages", "assay": "OSM-induced TNFα secretion by blood macrophages (ELISA)", "type": "cell-based", "settings": "co-incubated 8 hr with OSM, n=3 donors", "experimental": "(§1) Lyophilised, recombinant human oncostatin M (rhOSM) was purchased from R&D Systems diluted to 10 μg/ml in sterile PBS+0.1% BSA (Sigma) and aliquots stored at −20° C. until use. rhOSM, E. coli-derived LPS or CM were added to triplicate wells of macrophages, monocytes or Thp-1 cells, prepared as above and incubated for 7 hours at 37° C., 5% CO2. Supernatants were harvested and frozen at −20° C. until testing for TNFα protein by ELISA. In assays designed to co-assay for TNFα mRNA, cells were incubated as above for 4 hrs, washed once in PBS and lysed in RNA extraction buffer (RNAzole).\nImportantly, TNFα induction was not due to contaminating endotoxin as pre-boiling of OSM completely ablated TNFα secretion (data not shown). Also, removal of OSM by immunoprecipitation using specific antibody abolished activity (data not shown). These findings were extended to include human blood monocytes, pre-activated with interferon-γ and human blood macrophages, differentiated in culture for 7 days. Both cell types, when co-incubated for 8 hr with OSM, secreted TNFα, as measured by ELISA. Mean TNFα secretion by monocytes was 1447 pg/ml (range 137-4709 pg/ml; n=4 donors) and 542 pg/ml by macrophages (range 62-1428 pg/ml; n=3 donors)."}, "human blood monocytes": {"system": "human blood monocytes", "assay": "OSM-induced TNFα secretion by interferon-γ pre-activated blood monocytes (ELISA)", "type": "cell-based", "settings": "co-incubated 8 hr with OSM, n=4 donors", "experimental": "Human buffy coats (North London Blood Transfusion Centre) were diluted 1:3 with PBS, layered onto Lymphoprep (Nycomed UK) and centrifuged at 600×g for 30 minutes at room temperature. Harvested PBMC were washed 3 times in PBS, counted, and resuspended in 80 mls RPMI 1640/10% FCS at 5×10^6 cells/ml. 20 mls were put into each of four 175 cm^2 flasks and Incubated overnight at 37° C. to allow monocytes to adhere. Non-adherent cells were discarded and adherent cells scraped off after incubation with ice-cold versene at 4° C. for 15 minutes. Cells were washed twice in PBS, resuspended in RPMI 1640+10% heat inactivated human serum (Sigma) at 6.9×10^5/ml and 250 ul cell suspension placed into each well of 96-well flat bottomed plate (Costar). To half the plate was added 100 IU/ml IFNγ (Genzyme), the other half left as control. Plates were incubated overnight at 37° C., 5% CO2 prior to assay. […]\nImportantly, TNFα induction was not due to contaminating endotoxin as pre-boiling of OSM completely ablated TNFα secretion (data not shown). […] Both cell types, when co-incubated for 8 hr with OSM, secreted TNFα, as measured by ELISA. […]"}, "THP-1 cells": {"system": "THP-1 cells", "assay": "OSM-induced TNFα production by PMA-differentiated THP-1 cells (ELISA, RT-PCR)", "type": "cell-based, human", "experimental": "Human pro-monocytic line THP-1 cells (ECACC) were passaged twice weekly in RPMI supplemented with 10% heat-inactivated FCS, 10 mM hepes, 1% non-essential amino acids (all from Sigma), 4 mM L-glutamine (Hyclone), 100 U/ml penicillin+100 μg/ml streptomycin (Hyclone) (complete medium, CM) and then PMA (Sigma) was added to washed cells at 1 ug/ml and Incubated at 37° C. for 30 minutes. Cells were washed ×3 in pre-warmed PBS, resuspended in CM and plated out at 1.5×10^5 cells/ml in 96-well flat bottomed plates (Costar). Plates were incubated for 48 hours at 37° C., 5% CO2, then washed with PBS, the media replaced, and incubated for a further 24 hours. Cells were washed ×1 in PBS before use.\nas §1\nRNA was detected as follows. Total RNA was prepared according to the manufacturer's instructions and stored at −80° C. in DEPC-treated water. For RT-PCR, approximately 1 ug of RNA was reverse transcribed using oligo dT priming (first strand cDNA synthesis kit, Pharmacia Biotech) and the resulting cDNA subjected to 30 cycles of PCR using the following primers for TNFα (Clontech amplimers): forward—[…], (SEQ ID 1) reverse-[…] CCAGAC (SEQ ID 2). The amplified product (444 bp) was separated by agarose gel (2%) electrophoresis and visualized by ethidium bromide staining.\nThe human pro-monocytic line THP-1, was induced to differentiate using PMA, washed thoroughly, and incubated with recombinant human OSM as described above. Culture supernatants were removed at 8 hours and assayed for TNFα production by specific ELISA (TNF Quantikine, R&D Systems) in accordance with manufacturers instructions. OSM induced a dose-related release of TNFα, measurable above 1 ng/ml OSM and maximal at 200-500 ng/ml, routinely reaching secreted levels of greater than 2500 pg/ml TNFα."}, "Bovine nasal cartilage": {"system": "Bovine nasal cartilage", "assay": "Cartilage degradation assay (hydroxyproline/collagen release, MMP1)", "protocol": "Bovine nasal septum cartilage was held at 4° C. overnight after slaughter. 2 mm diameter discs were cut from 2 mm slices and washed twice in HBSS. Three discs per well of a 24 well plate (Costar) were incubated at 37° C., 5% CO2 for 24 hrs in a 600 μl volume of DMEM (Sigma) containing 25 mM HEPES supplemented with 2 mM glutamine, 100 μg/ml streptomycin, 100 U/ml penicillin and 2.5 μg/ml amphotericin B (cartilage degradation medium, CDM). Cartilage was cultured in quadruplicate wells in either: 600 μl of CDM alone, 2, 10 or 50 ng/ml human recombinant TNFα alone, 10 ng/ml rhOSM alone (R&D systems) or TNFα+OSM and incubated for 7 days at 37° C., 5% CO2. Supernatants were harvested and replaced with fresh medium containing identical test reagents to day 1. […] The cumulative level of OH-proline released into the medium by day 14 was measured and expressed as the percentage of total released as set out below.\nHydroxyproline release was assayed (as a measure of collagen degradation) using a microtitre plate modification of the method in (Bergmann I and loxley R. (1963) Anal. Biochem. 35 1961-1965. Chloramine T (7%) w/v) was diluted 1:4 in acetate citrate buffer (57 g sodium acetate, 37.5 g tri-sodium citrate, 5.5 g citrate acid, 385 ml propan-2-ol per liter water). […] The plate was heated to 65° C. for 35 min, cooled and the absorbance at 560 nm determined. […]"}}}
{"molecule": "O=C(Nc1ncnc2[nH]ncc12)c1ccccc1", "note": "[GW 340442X, N-(1H-pyrazolo[3,4-d]pyrimidin-4-yl)benzamide]", "values": [{"measurement": "inhibition of OSM-induced sPAP release", "setting": "[1]; HepG2 B6", "value": "concentration-dependent inhibition"}, {"measurement": "IC50", "setting": "[1]; Homo sapiens, HepG2, 2 ng/ml OSM, 20 hours, read-out: IC50, inhibition of OSM-induced sPAP release", "value": 0.3, "unit": "µM"}, {"measurement": "selectivity for OSM over TNFα", "setting": "[1]; from sPAP IC50 values", "value": "greater than 100 fold"}, {"measurement": "inhibition of TNFα-induced sPAP release", "setting": "[2]; A549 cells", "value": "limited inhibition"}, {"measurement": "IC50", "setting": "[2]; Homo sapiens, A549, 3 ng/ml TNFα, 20 hours, read-out: approx. IC50, inhibition of TNFα-induced sPAP", "value": "~92", "unit": "µM"}]}
{"molecule": "fucoidan", "values": [{"measurement": "OSM secretion by mononuclear cells", "setting": "L-selectin", "value": "powerful stimulant of OSM secretion"}]}
{"molecule": "OSM: recombinant human oncostatin M purchased from R&D Systems (protein) AAIGSCSKEYRVLLGQLQKQTDLMQDTSRLLDPYIRIQGLDVPKLREHCRERPGAFPSEETLRGLGRRGFLQTLNATLGCVLHRLADLEQRLPKAQDLERSGLNIEDLEKLQMARPNILGLRNNIYCMAQLLDNSDTAEPTKAGRGASQPPTPTPASDAFQRKLEGCRFLHGYHRFMHSVGRVFSKWGESPNRSRRHSPHQALRKGVRRTRPSRKGKRLMTRGQLPR", "values": [{"measurement": "Mean TNFα secretion by macrophages", "setting": "human blood macrophages", "value": 542, "unit": "pg/mL"}, {"measurement": "Mean TNFα secretion by monocytes", "setting": "human blood monocytes", "value": 1447, "unit": "pg/mL"}, {"measurement": "Expression of TNFα message (RT-PCR)", "setting": "THP-1 cells; 4 hr with 100 ng/ml OSM, relative to unstimulated control cells", "value": "strongly increased"}, {"measurement": "OSM concentration above which TNFα release is measurable", "setting": "THP-1 cells; 8 hours", "value": "above 1 ng/ml"}, {"measurement": "OSM concentration at which TNFα release is maximal", "setting": "THP-1 cells; 8 hours", "value": "200 to 500", "unit": "ng/mL"}, {"measurement": "secreted levels of TNFα", "setting": "THP-1 cells; PMA-differentiated THP-1, supernatants at 8 hours, at maximal OSM", "value": "greater than 2500 pg/ml"}, {"measurement": "collagen release", "setting": "Bovine nasal cartilage; OSM alone at 10 ng/ml, day 14", "value": "did not induce collagen release"}, {"measurement": "MMP1 secretion (total collagenase activity)", "setting": "Bovine nasal cartilage; day 7, OSM 10 ng/ml, TNFα 50 ng/ml", "value": "neither OSM nor TNFα alone, used at 10 ng/ml or 50 ng/ml, respectively, induced significant MMP1 secretion"}]}
